Reference: US20020103121A1

Molecular target: GAL4 activation domain-E2F-1 hybrid protein (GAD.E2F-1) (human)
Test: cell-based or functional assay

activity in the yeast two-hybrid assay relative to wild-type DP-1 (% reduction relative to wild-type DP-1): 50
response of the E2F binding site reporter in yeast: 50 % reduction
Substance: LexA-DP-1^172/173 hybrid protein (pLEX-DP-1/MT) (from UniProt Q08639 1-410)
